Test results: PMC8647860 (Nature, 2021)
Blank lines part the entries; values can stand above or below the molecule they belong to.

Key:
[1] = biological target: Glycine receptor β subunit (native heteromeric GlyR, 4α:1β) (Sus scrofa, UniProt A0A4X1TUM3+Q6KBX4); test: cryo-EM structure; type: binding
[2] = biological target: recombinant pig GlyR α1 subunit without fluorophore (pig); test: cryo-EM structure
[3] = biological target: T1, recombinant pig GlyR α1 subunit without fluorophore (pig); test: cryo-EM structure
T1 chain: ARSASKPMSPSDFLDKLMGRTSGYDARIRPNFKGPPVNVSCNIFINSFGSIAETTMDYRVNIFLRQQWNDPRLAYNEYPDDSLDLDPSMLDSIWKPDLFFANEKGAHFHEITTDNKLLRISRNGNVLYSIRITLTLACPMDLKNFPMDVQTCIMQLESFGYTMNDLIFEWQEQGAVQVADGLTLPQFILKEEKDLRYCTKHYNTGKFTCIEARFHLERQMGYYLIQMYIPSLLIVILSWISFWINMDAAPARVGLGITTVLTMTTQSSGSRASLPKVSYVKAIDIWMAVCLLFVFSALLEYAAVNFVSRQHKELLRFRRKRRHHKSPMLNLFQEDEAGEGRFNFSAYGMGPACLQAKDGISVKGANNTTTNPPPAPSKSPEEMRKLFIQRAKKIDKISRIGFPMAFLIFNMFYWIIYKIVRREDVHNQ

[4] = biological target: T2, recombinant pig GlyR α1 subunit tagged with YFP (pig); test: SEC
T2 chain: T1 chain

Molecule: NCC(=O)O [glycine]
cryo-EM structure (2.7 Å) [1]: formed between the hydroxyl moiety of βY231 and the carboxyl group of glycine

stoichiometry N (α subunits per β subunit) [2]: 4
Molecule: recombinant pig GlyR β subunit without fluorophore (receptor)

binding result [3]: binds
binding result [4]: binds
B1: anti-GlyR α 3D1 Fab (Fab, V domains shown)
VH: QVQLQQSGAELMKPGAAVKISCKATGHTISRYWIDWLKQRPGHGLEWIGEILPGSGSTNYNEKFKGKATFTAEKSSNTAYMQLSSLTSEDSAVYYCAMGVRGNYFDYWGQGTTLTVSS
VL: DIVMTQSHKFMSTSVGDRVSITCKASQDVSTAVAWYQQKPGQSPKLLIYWASTRHTGVPGRFTGSGSGTDYTLTISSVQAEDLSLYYCQQHYSTPRTFGGGTKLEIK
